Results from patent US20200262894A1 (FRED HUTCHINSON CANCER RESEARCH CENTER, published 2020).
Non-standard residues stand in square brackets, D forms with d.

What was measured:
Assay in all cases: flow cytometry, cytometric bead array with BSA-coupled peptides
[1] = target: T1, STII peptide Ac-C(dPEG4)NWSHPQFEK-amide, maleimide-coupled to BSA carrier protein (also: maleimide-coupled to BSA carrier protein)
T1 construct: on a cytometric bead array as BSA conjugate
T1 peptide: Ac-C[dPEG4]NWSHPQFEK-NH2

[2] = target: T2, STII peptide H2N-CGNWSHPQFEK-amide, maleimide-coupled to BSA carrier protein (also: maleimide-coupled to BSA carrier protein)
T2 construct: on a cytometric bead array as BSA conjugate
T2 peptide: H-CGNWSHPQFEK-NH2

[3] = target: T3, STII peptide H2N-CGNWSHPQFEKGC-OH, maleimide-coupled to BSA carrier protein (cysteine pairing not given here; also: maleimide-coupled to BSA carrier protein)
T3 construct: on a cytometric bead array as BSA conjugate
T3 peptide: H-CGNWSHPQFEKGC-OH

Measured: binding result

B1: anti-STII monoclonal antibody 4E2 (antibody, V domains shown)
VH: QVQLQQSGAELARPGASVKLSCTASGYTFTSYGITWVRQRTGQGLEWIGEIFPGSGDTSYGEKLKGQATLTTDKSSSTAYMQLSSLTSEDSAVYFCARRYRYIYHAMDYWGQGTSVTVSS
VL: DILMTQTPLSLPVSLGDQASISCRSSQSIVHSNGNTYLEWYLQKPGQSPKLLIYKVSNRFSGVPDRFSGSGSGTDFTLKISRVEAEDLGVYYCFQGSHVPLTFGAGTKLELK
notes: also called 4E2 mAb
binds: all assays above

B2: anti-STII monoclonal antibody 3E8 (antibody, V domains shown)
VH: EVQLVETGGGFVKPGGSLKLSCAASGFTFSSYGMSWVRQTPEKRLEWVAAITSDGGGTHYPDTVKGRFTISRDFAKNTLYLQMSSLRSEDTAWYFCARHEPRLIAWFAHWGQGTLVTVSA
VL: DVLMTQTPLSLPVSLGDQASISCRSSQSIVHSNGYTYLEWYLQKPGQSPKLLIYEVSNRFSGVPDRFSGSGSGTDFTLKIIRVEAEDLGVYYCFQGSHVPWTFGGGTKLEIK
notes: also called 3E8 mAb; STII-specific mAb 3E8
binds: all assays above

B3: anti-STII monoclonal antibody 5G2 (antibody, V domains shown)
VH: QVQLQQSGAELARPGASVKLSCTASGYTFTSYGITWVRQRTGQGLEWIGEIFPGSGDTSYGEKFKGQATLTTDKSSSTAYMQLSSLTSEDSAVYFCARRYRYIYHAMDYWGQGTSVTVSS
VL: DILMTQTPLSLPVSLGDQASISCRSSQSIVHSNGNTYLEWYLQKPGQSPKLLIYKVSNRFSGVPDRFSGSGSGTDFTLKIRRVEAEDLGVYYCFQGSHVPLTFGAGTKLELK
notes: also called 5G2 mAb; anti-STII 5G2 mAb
binds: all assays above
